Test results published in US20210238260.
Residue numbers refer to the chain shown, from its start. In names and notes the source's numbering stands.

What was measured:
[1] = target: T1, Factor VIIIa (FVIIIa), P00451
T1 chain: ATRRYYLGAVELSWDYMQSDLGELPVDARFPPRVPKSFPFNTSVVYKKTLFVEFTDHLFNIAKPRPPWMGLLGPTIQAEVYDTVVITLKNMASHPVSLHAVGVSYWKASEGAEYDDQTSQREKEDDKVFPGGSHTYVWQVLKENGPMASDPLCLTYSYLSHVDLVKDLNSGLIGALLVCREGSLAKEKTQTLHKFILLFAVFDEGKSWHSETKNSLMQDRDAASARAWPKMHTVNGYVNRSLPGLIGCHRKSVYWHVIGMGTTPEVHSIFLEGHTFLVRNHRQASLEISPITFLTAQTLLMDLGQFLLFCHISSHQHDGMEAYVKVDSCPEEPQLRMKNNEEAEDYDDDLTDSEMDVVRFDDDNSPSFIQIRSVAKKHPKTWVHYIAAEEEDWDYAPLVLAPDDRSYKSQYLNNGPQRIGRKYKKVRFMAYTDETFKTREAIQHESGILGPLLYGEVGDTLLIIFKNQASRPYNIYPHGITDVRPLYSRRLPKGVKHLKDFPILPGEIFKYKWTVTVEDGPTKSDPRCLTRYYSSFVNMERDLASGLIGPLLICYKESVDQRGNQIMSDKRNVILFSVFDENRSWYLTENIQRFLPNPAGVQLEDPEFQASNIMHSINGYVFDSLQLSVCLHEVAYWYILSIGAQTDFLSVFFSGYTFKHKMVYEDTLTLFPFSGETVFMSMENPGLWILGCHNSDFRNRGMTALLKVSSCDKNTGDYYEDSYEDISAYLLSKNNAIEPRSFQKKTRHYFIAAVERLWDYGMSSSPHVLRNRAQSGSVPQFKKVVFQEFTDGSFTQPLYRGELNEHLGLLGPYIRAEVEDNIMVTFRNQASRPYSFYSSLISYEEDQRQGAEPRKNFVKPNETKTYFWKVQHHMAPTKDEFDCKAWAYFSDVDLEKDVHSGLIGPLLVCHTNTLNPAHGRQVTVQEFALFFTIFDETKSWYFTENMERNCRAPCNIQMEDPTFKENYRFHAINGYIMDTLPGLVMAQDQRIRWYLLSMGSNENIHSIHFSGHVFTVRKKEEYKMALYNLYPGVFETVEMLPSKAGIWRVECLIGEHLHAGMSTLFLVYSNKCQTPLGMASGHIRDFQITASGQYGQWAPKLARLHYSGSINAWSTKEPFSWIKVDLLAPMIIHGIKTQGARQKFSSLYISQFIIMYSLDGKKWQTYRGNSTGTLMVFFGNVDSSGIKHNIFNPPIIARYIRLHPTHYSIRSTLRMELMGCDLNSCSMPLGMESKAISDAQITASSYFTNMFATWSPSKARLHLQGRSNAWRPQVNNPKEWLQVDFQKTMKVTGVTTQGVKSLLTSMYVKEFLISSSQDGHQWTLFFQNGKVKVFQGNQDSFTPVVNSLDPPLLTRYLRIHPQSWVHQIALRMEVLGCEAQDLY

[2] = target: plasma purified human AT-III (antithrombin III); test: AT-III/UFH inhibition K0.5, ratio to Catalyst Biosciences WT FIXa
[3] = target: T2, plasma purified human antithrombin III (AT-III), as complex with unfractionated heparin; test: ratio of K0.5 to Catalyst Biosciences WT FIXa, AT-III/UFH inhibition
[4] = target: T2, plasma purified human antithrombin III …; test: ratio of K0.5 (lower limit) to Catalyst Biosciences WT FIXa, AT-III/UFH inhibition

Chain of Factor X (FX), P00742 (P00742 whole entry, looked up): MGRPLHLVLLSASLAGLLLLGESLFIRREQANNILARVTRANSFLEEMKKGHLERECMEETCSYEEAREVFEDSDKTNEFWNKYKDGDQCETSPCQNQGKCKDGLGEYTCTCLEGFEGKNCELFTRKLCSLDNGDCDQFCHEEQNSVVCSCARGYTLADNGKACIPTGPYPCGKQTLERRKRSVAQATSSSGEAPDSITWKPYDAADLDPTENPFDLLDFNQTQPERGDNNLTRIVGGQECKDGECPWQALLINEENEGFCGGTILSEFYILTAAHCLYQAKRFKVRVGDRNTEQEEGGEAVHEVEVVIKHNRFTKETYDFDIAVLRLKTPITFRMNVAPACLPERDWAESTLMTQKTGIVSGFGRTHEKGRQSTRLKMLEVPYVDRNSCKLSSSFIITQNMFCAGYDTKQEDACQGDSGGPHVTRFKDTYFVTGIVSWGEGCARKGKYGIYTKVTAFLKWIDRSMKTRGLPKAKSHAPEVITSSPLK
Chain of Factor X, P00742 (P00742 whole entry, looked up): as above

B1: FIX of SEQ ID NO: 394, with the replacements R318Y/R338E/T343R (activated, FIXa) (protein)
chain 1: YNSGKLEEFVQGNLERECMEEKCSFEEAREVFENTERTTEFWKQYVDGDQCESNPCLNGGSCKDDINSYECWCPFGFEGKNCELDVTCNIKNGRCEQFCKNSADNKVVCSCTEGYRLAENQKSCEPAVPFPCGRVSVSQTSKLTR
chain 2: VVGGEDAKPGQFPWQVVLNGKVDAFCGGSIVNEKWIVTAAHCVETGVKITVVAGEHNIEETEHTEQKRNVIRIIPHHNYNAAINKYNHDIALLELDEPLVLNSYVTPICIADKEYTNIFLKFGSGYVSGWGRVFHKGYSALVLQYLRVPLVDRATCLESTKFRIYNNMFCAGFHEGGRDSCQGDSGGPHVTEVEGTSFLTGIISWGEECAMKGKYGIYTKVSRYVNWIKEKTKLT
In the case of B1, the FIX activity, mean, Test 1, FVIIIa 0 ng/mL (no cofactor, baseline) [1] is reported as 1.24, the FIX activity, mean, Test 1, FVIIIa 5 ng/mL [1] is reported as 278 and the FIX activity, mean, Test 2, FVIIIa 0 ng/mL (no cofactor, baseline) [1] is reported as 1.25. The FIX activity, mean, Test 2, FVIIIa 10 ng/mL [1] was 479, the FIX activity, mean, Test 3, FVIIIa 0 ng/mL (no cofactor, baseline) [1] was 1.28 and the FIX activity, mean, Test 3, FVIIIa 15 ng/mL [1] was 622. The Fold-increase after FVIIIa addition, Test 1 (5 ng/mL) [1] was 225 fold, the Fold-increase after FVIIIa addition, Test 2 (10 ng/mL) [1] was 384 fold and the Fold-increase after FVIIIa addition, Test 3 (15 ng/mL) [1] was 486 fold. It also gave a Ratio (CB2679d vs BeneFIX FIX) of FIX activity, Test 1, FVIIIa 0 ng/mL (no cofactor) [1] of 1.3, a Ratio (CB2679d vs BeneFIX FIX) of FIX activity, Test 1, FVIIIa 5 ng/mL [1] of 2 and a Ratio (CB2679d vs BeneFIX FIX) of FIX activity, Test 2, FVIIIa 0 ng/mL (no cofactor) [1] of 1.4. For the same protein, the Ratio (CB2679d vs BeneFIX FIX) of FIX activity, Test 2, FVIIIa 10 ng/mL [1] was 2, the Ratio (CB2679d vs BeneFIX FIX) of FIX activity, Test 3, FVIIIa 0 ng/mL (no cofactor) [1] was 1.3 and the Ratio (CB2679d vs BeneFIX FIX) of FIX activity, Test 3, FVIIIa 15 ng/mL [1] was 2. It also gave a Cofactor-Dependent Indirect kcat/KM (Factor X (FX), P00742) of 1.2e+08 M⁻¹ s⁻¹, a Fold Change, In Vitro Assays: Pro-coagulant Activity (Factor X (FX), P00742) of 2.8 fold and a Fold Increase over BeneFIX FIX (Cofactor-Dependent Indirect kcat/KM) (Factor X (FX), P00742) of 2.8 fold.

B2: FIXa-D104N/K106S/K228N/K247N/N249S (protein)
chain 1: B1 chain 1 with D104N, K106S
chain 2: B1 chain 2 with K48N, K67N, N69S, Y138R, E158R, R163T
For B2, the kcat (Factor X (FX), P00742) was 1.7 s⁻¹, the kcat of FX activation by FIXa (Xase complex with FVIIIa, PC/PS vesicles, Ca2+) (Factor X (FX), P00742) was 1.7 s⁻¹ and the K0.5-mut/K0.5-wt [2] was 2.1. The K0.5-mut/K0.5-wt [3] was 2.1.

B3: FIXa-Y155F/R318Y/R338E/N346D/R403E/E410N (protein)
chain 1: B1 chain 1
chain 2: B1 chain 2 with R163T, N166D, R223E, E230N
With B3 the KM (Factor X (FX), P00742) was 0.1 µM, the kcat of FX activation by FIXa (Xase complex with FVIIIa, PC/PS vesicles, Ca2+) (Factor X (FX), P00742) was 6.4 s⁻¹ and the “% of WT kcat/KM” value (Factor X, P00742) was 139%. For the same protein, the kcat (Factor X, P00742) was 6.4 s⁻¹, the kcat/KM (Factor X, P00742) was 6.2e+07 M⁻¹ s⁻¹ and the K0.5-mut/K0.5-wt [2] was over 517. The K0.5-mut/K0.5-wt [4] was 517.

B4: FIXa-Y155F/I251S/R318Y/R338E/R403E/E410N (protein)
chain 1: B1 chain 1
chain 2: B1 chain 2 with I71S, R163T, R223E, E230N
For B4, the “% of WT kcat/KM” value (Factor X (FX), P00742) was 363%, the kcat (Factor X (FX), P00742) was 7.2 s⁻¹ and the kcat/KM (Factor X (FX), P00742) was 1.7e+08 M⁻¹ s⁻¹. The “% of WT kcat/KM” value (Factor X, P00742) was 374%, the KM (Factor X, P00742) was 0.0433 µM and the kcat/KM (Factor X, P00742) was 1.7e+08 M⁻¹ s⁻¹. It also gave a K0.5-mut/K0.5-wt [2] of over 517 and a K0.5-mut/K0.5-wt [4] of 517.

B5: FIXa-R318Y/R338E/R403E/E410N/T412V (protein)
chain 1: B1 chain 1
chain 2: B1 chain 2 with R163T, R223E, E230N, T232V
In the case of B5, the KM (Factor X (FX), P00742) is reported as 0.0443 µM, the kcat of FX activation by FIXa (Xase complex with FVIIIa, PC/PS vesicles, Ca2+) (Factor X (FX), P00742) is reported as 7 s⁻¹ and the “% of WT kcat/KM” value (Factor X, P00742) is reported as 424%. For the same protein, the kcat (Factor X, P00742) was 7.9 s⁻¹, the kcat/KM (Factor X, P00742) was 1.9e+08 M⁻¹ s⁻¹ and the K0.5-mut/K0.5-wt [2] was over 517. For the same protein, the K0.5-mut/K0.5-wt [4] was 517.

B6: FIXa-R318Y/R338E/R403E/E410N/T412A (protein)
chain 1: B1 chain 1
chain 2: B1 chain 2 with R163T, R223E, E230N, T232A
In the case of B6, the KM (Factor X (FX), P00742) is reported as 0.0335 µM, the kcat of FX activation by FIXa (Xase complex with FVIIIa, PC/PS vesicles, Ca2+) (Factor X (FX), P00742) is reported as 7.8 s⁻¹ and the “% of WT kcat/KM” value (Factor X, P00742) is reported as 577%. It also gave a kcat (Factor X, P00742) of 8.4 s⁻¹, a kcat/KM (Factor X, P00742) of 2.6e+08 M⁻¹ s⁻¹ and a K0.5-mut/K0.5-wt [2] of over 517. The K0.5-mut/K0.5-wt [4] was 517.

B7: FIXa-Y155F/K247N/N249S/R318Y/R338E/R403E/E410N (protein)
chain 1: B1 chain 1
chain 2: B1 chain 2 with K67N, N69S, R163T, R223E, E230N
In the case of B7, the “% of WT kcat/KM” value (Factor X (FX), P00742) is reported as 405%, the kcat (Factor X (FX), P00742) is reported as 6.5 s⁻¹ and the kcat/KM (Factor X (FX), P00742) is reported as 1.9e+08 M⁻¹ s⁻¹. For the same protein, the “% of WT kcat/KM” value (Factor X, P00742) was 408%, the KM (Factor X, P00742) was 0.0391 µM and the kcat/KM (Factor X, P00742) was 1.8e+08 M⁻¹ s⁻¹. For the same protein, the K0.5-mut/K0.5-wt [2] was over 517 and the K0.5-mut/K0.5-wt [4] was 517.

B8: FIXa-R318Y/R338E/E410N/T412V (protein)
chain 1: B1 chain 1
chain 2: B1 chain 2 with R163T, E230N, T232V
For B8, the KM (Factor X (FX), P00742) was 0.0297 µM, the kcat of FX activation by FIXa (Xase complex with FVIIIa, PC/PS vesicles, Ca2+) (Factor X (FX), P00742) was 5.2 s⁻¹ and the “% of WT kcat/KM” value (Factor X, P00742) was 536%. For the same protein, the kcat (Factor X, P00742) was 6.3 s⁻¹, the kcat/KM (Factor X, P00742) was 2.4e+08 M⁻¹ s⁻¹ and the K0.5-mut/K0.5-wt [2] was 252. For the same protein, the K0.5-mut/K0.5-wt [4] was 517.
